B1: recombinant His-tagged flotillin 1 (natural protein, UniProt O75955-1 1-427, looked up)
chain: MFFTCGPNEAMVVSGFCRSPPVMVAGGRVFVLPCIQQIQRISLNTLTLNVKSEKVYTRHGVPISVTGIAQVKIQGQNKEMLAAACQMFLGKTEAEIAHIALETLEGHQRAIMAHMTVEEIYKDRQKFSEQVFKVASSDLVNMGISVVSYTLKDIHDDQDYLHSLGKARTAQVQKDARIGEAEAKRDAGIREAKAKQEKVSAQYLSEIEMAKAQRDYELKKAAYDIEVNTRRAQADLAYQLQVAKTKQQIEEQRVQVQVVERAQQVAVQEQEIARREKELEARVRKPAEAERYKLERLAEAEKSQLIMQAEAEAASVRMRGEAEAFAIGARARAEAEQMAKKAEAFQLYQEAAQLDMLLEKLPQVAEEISGPLTSANKITLVSSGSGTMGAAKVTGEVLDILTRLPESVERLTGVSISQVNHKPLRTA
notes: flotillin 1; the discussion speaks of bacterially expressed proteins; also called FL1
B2: recombinant His-tagged flotillin 2 (natural protein, UniProt Q14254 1-428, looked up)
chain: MGNCHTVGPNEALVVSGGCCGSDYKQYVFGGWAWAWWCISDTQRISLEIMTLQPRCEDVETAEGVALTVTGVAQVKIMTEKELLAVACEQFLGKNVQDIKNVVLQTLEGHLRSILGTLTVEQIYQDRDQFAKLVREVAAPDVGRMGIEILSFTIKDVYDKVDYLSSLGKTQTAVVQRDADIGVAEAERDAGIREAECKKEMLDVKFMADTKIADSKRAFELQKSAFSEEVNIKTAEAQLAYELQGAREQQKIRQEEIEIEVVQRKKQIAVEAQEILRTDKELIATVRRPAEAEAHRIQQIAEGEKVKQVLLAQAEAEKIRKIGEAEAAVIEAMGKAEAERMKLKAEAYQKYGDAAKMALVLEALPQIAAKIAAPLTKVDEIVVLSGDNSKVTSEVNRLLAELPASVHALTGVDLSKIPLIKKATGVQV
notes: flotillin 2; also called FL2
B3: endogenous MPP1 (HEL cells) (natural protein)
chain: MTLKASEGESGGSMHTALSDLYLEHLLQKRSRPEAVSHPLNTVTEDMYTNGSPAPGSPAQVKGQEVRKVRLIQFEKVTEEPMGITLKLNEKQSCTVARILHGGMIHRQGSLHVGDEILEINGTNVTNHSVDQLQKAMKETKGMISLKVIPNQQSRLPALQMFMRAQFDYDPKKDNLIPCKEAGLKFATGDIIQIINKDDSNWWQGRVEGSSKESAGLIPSPELQEWRVASMAQSAPSEAPSCSPFGKKKKYKDKYLAKHSSIFDQLDVVSYEEVVRLPAFKRKTLVLIGASGVGRSHIKNALLSQNPEKFVYPVPYTTRPPRKSEEDGKEYHFISTEEMTRNISANEFLEFGSYQGNMFGTKFETVHQIHKQNKIAILDIEPQTLKIVRTAELSPFIVFIAPTDQGTQTEALQQLQKDSEAIRSQYAHYFDLSLVNNGVDETLKKLQEAFDQACSSPQWVPVSWVY
B4: MPP1-Mut4 (residues 231–466) (domain or fragment, human, UniProt Q00013 231-466, looked up)
chain: MAQSAPSEAPSCSPFGKKKKYKDKYLAKHSSIFDQLDVVSYEEVVRLPAFKRKTLVLIGASGVGRSHIKNALLSQNPEKFVYPVPYTTRPPRKSEEDGKEYHFISTEEMTRNISANEFLEFGSYQGNMFGTKFETVHQIHKQNKIAILDIEPQTLKIVRTAELSPFIVFIAPTDQGTQTEALQQLQKDSEAIRSQYAHYFDLSLVNNGVDETLKKLQEAFDQACSSPQWVPVSWVY
notes: MPP1 (p55), human, residues 231-466; A FLAG form (p3XFLAG-CMV-10) was expressed in HEL cells for the functional tests only
B5: MPP1-Mut3 (residues 211–292) (domain or fragment, human, UniProt Q00013 211-292, looked up)
chain: SKESAGLIPSPELQEWRVASMAQSAPSEAPSCSPFGKKKKYKDKYLAKHSSIFDQLDVVSYEEVVRLPAFKRKTLVLIGASG
notes: MPP1 (p55), human, residues 211-292
B6: MPP1-Mut2 (residues 151–237) (domain or fragment, human, UniProt Q00013 151-237, looked up)
chain: NQQSRLPALQMFMRAQFDYDPKKDNLIPCKEAGLKFATGDIIQIINKDDSNWWQGRVEGSSKESAGLIPSPELQEWRVASMAQSAPS
notes: MPP1 (p55), human, residues 151-237

Assay [1] concerns the target T1, full length recombinant MPP1 (human, UniProt Q00013 1-466).
T1 construct: MPP1 (p55), human erythroid, full length; also called p55; MPP1(p55)
T1 sequence (looked up): B3 chain
The assay can be described thus: SPR; His-tagged flotillin 1 or 2 captured on a Ni-NTA sensor chip (about 4000 RU), BIAcore T200; untagged MPP1 or its truncated mutants as analytes (at least five concentrations, 50-2000 nM), association 360 s, dissociation 600 s; HBS-T; global fit, 1:1 Langmuir model with mass transport step. The settings on record: both partners purified. For orientation: Surface plasmon resonance follows binding to a sensor surface in real time, without labels.

In assay [2] the target is flotillins (endogenous, HEL cells).
Assay [3] shares this target. The source holds these as a separate data set.
Assay [4] has as its target B1. The assay can be described thus: SPR; His-tagged flotillin 1 or 2 captured on a Ni-NTA sensor chip (about 4000 RU), BIAcore T200; untagged MPP1 or its truncated mutants as analytes (at least five concentrations, 50-2000 nM), association 360 s, dissociation 600 s; HBS-T; global fit, 1:1 Langmuir model with mass transport step. The conditions noted are these: both partners purified.

Assay [5] has as its target B2. Described as above. The settings on record: both partners purified.
The target of assay [6] is B2. The assay is described as above. The settings on record: both partners purified. This is another data set of the same source.

One may read the Kd as the equilibrium constant for the complex coming apart. The term koff denotes the first-order rate constant of dissociation. As a reminder, the kon is the second-order rate constant of association.

Consider B1, for which, in assay [1], the Kd turned out to be 22.8 nM, the koff came to 0.00103 s⁻¹ and the kon came to 45000 M⁻¹ s⁻¹.
For B2 the same measures were 31 nM, 0.00128 s⁻¹ and 41300 M⁻¹ s⁻¹.
On to B3, for which the reduction of the pERK1/2 level after insulin stimulation in HEL cells transfected with MPP1-Mut4 compared to FLAG control in assay [2] turned out to be 46%. This molecule also yielded a fluorescence lifetime of di-4-ANEPPDHQ (FLIM) in the plasma membrane of HEL cells transfected with MPP1-Mut4-FLAG (~ 3.83 ns) compared to FLAG control (~ 3.98 ns) in assay [3] of 0.15 ns.
With B4, in assay [4], the Kd amounted to 39.2 nM, the koff worked out at 0.000319 s⁻¹ and the kon turned out to be 8130 M⁻¹ s⁻¹. Also, in assay [5], the Kd came to 50.2 nM, the koff was determined as 0.000281 s⁻¹ and the kon came to 5600 M⁻¹ s⁻¹.
B5: in assay [4], the Kd was determined as 137 nM, the koff stood at 0.000515 s⁻¹ and the kon is 3750 M⁻¹ s⁻¹. Also, in assay [5], the Kd worked out at 199 nM, the koff stood at 0.000828 s⁻¹ and the kon is 4170 M⁻¹ s⁻¹.
With B6, the Kd in assay [6] came out at 686 nM. Besides, in assay [4], the Kd turned out to be 702 nM, the koff stood at 0.00118 s⁻¹ and the kon stood at 1680 M⁻¹ s⁻¹. Besides, in assay [5], the Kd amounted to 982 nM, the koff is 0.0016 s⁻¹ and the kon turned out to be 1630 M⁻¹ s⁻¹.

The record behind these values is paper PMC8292550, “Molecular characterization of direct interactions between MPP1 and flotillins” (Scientific Reports, 2021).
